Key:
[1] = biological target: T1, Fc (kih)-IFNGR1 monomer (P1AF7104) (UniProt P15260 18-245); assay: SPR (Biacore 8K, 25 C), biotinylated Fc(kih)-IFNG captured on SA chip, Fc(kih)-IFNGR1 monomer as analyte, 1:1 Langmuir fit
T1 construct: Used as the soluble analyte in SPR; not shown: Fc (kih) part
T1 sequence (P15260 whole entry, species assumed, looked up): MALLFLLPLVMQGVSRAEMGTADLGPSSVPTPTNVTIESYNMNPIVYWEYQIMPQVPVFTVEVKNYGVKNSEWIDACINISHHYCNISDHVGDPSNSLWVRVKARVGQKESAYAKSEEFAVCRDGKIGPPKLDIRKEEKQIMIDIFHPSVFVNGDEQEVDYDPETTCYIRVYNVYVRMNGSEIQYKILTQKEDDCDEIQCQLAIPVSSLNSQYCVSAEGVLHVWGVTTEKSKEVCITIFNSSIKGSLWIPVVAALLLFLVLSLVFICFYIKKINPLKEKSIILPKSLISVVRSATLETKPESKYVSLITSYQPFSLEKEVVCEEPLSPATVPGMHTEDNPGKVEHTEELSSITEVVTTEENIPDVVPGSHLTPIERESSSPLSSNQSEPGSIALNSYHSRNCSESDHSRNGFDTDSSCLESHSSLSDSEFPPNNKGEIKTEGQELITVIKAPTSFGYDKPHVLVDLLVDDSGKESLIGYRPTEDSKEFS
Procedure: (§1) The binding behaviour of IFNG variants towards IFNGR1 and IFNGR1/2 was assessed by surface plasmon resonance (SPR). SPR experiments were performed on a Biacore 8K device at 25° C. with HBS-EP as running buffer (0.01 M HEPES pH 7.4, 0.15 M NaCl, 3 mM EDTA, 0.005% Surfactant P20, Biacore, Freiburg/Germany). […] IFNG mutation series compounds were immobilised at a concentration of 25 nM, 80 s contact time and 10 μL/min. Immobilisation levels up to 450 resonance units (RU) were used. Subsequently, decreasing concentrations (800-3.13 nM) of Fc (kih)-IFNGR1 monomer or Fc (kih)-IFNGR1/2 heterodimer were injected as a second analyte with a flow rate of 30 μL/min over 120 seconds and dissociation was monitored for 500 s. Bulk refractive index differences were corrected for by subtracting the response obtained in a reference flow cell, where no protein was immobilised. […]
(§2) To further evaluate analogous properties of wild-type IFNG and our engineered compound with C-terminal KRKRP (SEQ ID NO:1), we determined the binding affinities of IFNG variants towards IFNG receptors by SPR. […] As second analytes, either IFNGR1 monomer (P1AF7104) or IFNGR1/2 heterodimer (P1AF8126) were passed through the flow cell at different concentrations and dissociation constants (KD) were calculated based on observed association and dissociation behaviour.

[2] = biological target: T2, Fc (kih)-IFNGR1/2 heterodimer (P1AF8126) (UniProt P15260 18-245; P38484 28-247, limits assumed); assay: SPR (Biacore 8K, 25 C), biotinylated Fc(kih)-IFNG captured on SA chip, Fc(kih)-IFNGR1/2 heterodimer as analyte, 1:1 Langmuir fit; IFNG KRKRP variant, IFNGR1/2 heterodimer as analyte
T2 construct: Used as the soluble analyte in SPR; also called Fc (kih)-IFNGR1/R2 heterodimer; IFNGR1/R2; not shown: Fc (kih) chain
T2 sequence (looked up) 1: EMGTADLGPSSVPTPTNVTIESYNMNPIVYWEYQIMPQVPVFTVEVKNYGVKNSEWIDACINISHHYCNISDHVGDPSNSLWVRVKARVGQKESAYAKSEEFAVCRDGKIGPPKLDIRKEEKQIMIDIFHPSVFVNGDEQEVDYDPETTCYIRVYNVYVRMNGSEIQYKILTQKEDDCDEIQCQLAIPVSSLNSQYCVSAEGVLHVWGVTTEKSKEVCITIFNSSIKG
T2 sequence (looked up) 2: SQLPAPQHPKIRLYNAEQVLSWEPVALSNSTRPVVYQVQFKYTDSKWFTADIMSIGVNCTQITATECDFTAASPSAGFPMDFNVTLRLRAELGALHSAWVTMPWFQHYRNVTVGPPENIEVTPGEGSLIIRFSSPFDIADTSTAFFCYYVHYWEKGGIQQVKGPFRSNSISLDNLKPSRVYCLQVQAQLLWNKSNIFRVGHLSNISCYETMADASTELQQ
Procedure: as §1, §2

Kd [1]: 154 nM | Kd [2]: 54.4 nM
B1: Fc (kih)-IFNG KRKRP (P1AG1550) (Fc fusion)
chain: QDPYVKEAENLKKYFNAGHSDVADNGTLFLGILKNWKEESDRKIMQSQIVSFYFKLFKNFKDDQSIQKSVETIKEDMNVKFFNSNKKKRDDFEKLTNYSVTDLNVQRKAIHELIQVMAELSPAAKTGKRKRP
modifications: biotinylated (site not stated)
notes: Produced as a C-terminal Fc (kih)-fusion protein; not shown: Fc (kih) chain (knob: S354C, T366W; hole: Y349C, T366S, L368A, Y410V as printed) and any linker

Source: US20250333542A1 (Hoffmann-La Roche, published 2025)
